In paper PMC5482197:

Experiments:
[1] = target: recombinant soluble integrin αvβ3 (UniProt P06756); test: SPR; soluble αvβ3 immobilized on a CM5 sensor chip by amine coupling; WT and mutant FGF2 two-fold serially diluted from 2 μM in HBS-P buffer (0.01 M Hepes, pH 7.4, 0.15 M NaCl, 0.0005% surfactant P20) with 1 mM Mn2+; 50 μl/min, 1.8 min injection, 3 min dissociation; WT: Kd is the average of Kd values of individual curves; K125E: global fit with a conformation-change model, Kd1 used as Kd
[2] = target: integrin α5β1 on K562 erythroleukaemia cells, P08648;P05556; test: cell adhesion assay (K562 cells); conditions: K562 cells (αvβ3-, α5β1+), panel title K562_FGF2_RPMI, read off a plot

UniProt P06756, sequence (P06756 31-1048, chain 1 of 2): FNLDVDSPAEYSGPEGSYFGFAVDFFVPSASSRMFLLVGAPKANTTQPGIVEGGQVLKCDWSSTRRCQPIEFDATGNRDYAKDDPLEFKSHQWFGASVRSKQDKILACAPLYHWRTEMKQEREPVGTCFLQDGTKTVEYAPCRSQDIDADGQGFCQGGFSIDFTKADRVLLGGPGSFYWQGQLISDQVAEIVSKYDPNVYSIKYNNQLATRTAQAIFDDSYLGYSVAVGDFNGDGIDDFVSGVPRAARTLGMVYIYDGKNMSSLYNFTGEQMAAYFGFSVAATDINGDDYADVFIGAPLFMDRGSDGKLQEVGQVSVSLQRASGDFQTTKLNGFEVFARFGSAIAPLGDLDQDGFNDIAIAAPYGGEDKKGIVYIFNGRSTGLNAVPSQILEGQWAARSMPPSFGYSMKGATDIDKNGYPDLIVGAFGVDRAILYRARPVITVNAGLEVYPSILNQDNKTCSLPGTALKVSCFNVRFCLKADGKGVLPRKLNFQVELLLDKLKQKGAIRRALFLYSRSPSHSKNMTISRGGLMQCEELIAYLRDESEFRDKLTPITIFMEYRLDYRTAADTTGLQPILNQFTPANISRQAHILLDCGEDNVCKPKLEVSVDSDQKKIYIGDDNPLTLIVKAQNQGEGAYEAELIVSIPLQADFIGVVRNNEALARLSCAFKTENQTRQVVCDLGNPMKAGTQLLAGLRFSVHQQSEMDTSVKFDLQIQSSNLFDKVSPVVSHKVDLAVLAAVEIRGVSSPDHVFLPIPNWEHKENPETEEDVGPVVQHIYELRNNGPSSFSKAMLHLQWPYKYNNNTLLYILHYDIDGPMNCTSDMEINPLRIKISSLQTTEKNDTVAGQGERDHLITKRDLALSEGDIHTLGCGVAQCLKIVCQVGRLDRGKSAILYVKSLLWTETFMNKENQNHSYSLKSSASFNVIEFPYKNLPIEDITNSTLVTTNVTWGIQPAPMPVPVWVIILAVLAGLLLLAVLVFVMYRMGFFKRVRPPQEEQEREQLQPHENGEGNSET
UniProt P06756, sequence (P05106 27-718, chain 2 of 2, further chain): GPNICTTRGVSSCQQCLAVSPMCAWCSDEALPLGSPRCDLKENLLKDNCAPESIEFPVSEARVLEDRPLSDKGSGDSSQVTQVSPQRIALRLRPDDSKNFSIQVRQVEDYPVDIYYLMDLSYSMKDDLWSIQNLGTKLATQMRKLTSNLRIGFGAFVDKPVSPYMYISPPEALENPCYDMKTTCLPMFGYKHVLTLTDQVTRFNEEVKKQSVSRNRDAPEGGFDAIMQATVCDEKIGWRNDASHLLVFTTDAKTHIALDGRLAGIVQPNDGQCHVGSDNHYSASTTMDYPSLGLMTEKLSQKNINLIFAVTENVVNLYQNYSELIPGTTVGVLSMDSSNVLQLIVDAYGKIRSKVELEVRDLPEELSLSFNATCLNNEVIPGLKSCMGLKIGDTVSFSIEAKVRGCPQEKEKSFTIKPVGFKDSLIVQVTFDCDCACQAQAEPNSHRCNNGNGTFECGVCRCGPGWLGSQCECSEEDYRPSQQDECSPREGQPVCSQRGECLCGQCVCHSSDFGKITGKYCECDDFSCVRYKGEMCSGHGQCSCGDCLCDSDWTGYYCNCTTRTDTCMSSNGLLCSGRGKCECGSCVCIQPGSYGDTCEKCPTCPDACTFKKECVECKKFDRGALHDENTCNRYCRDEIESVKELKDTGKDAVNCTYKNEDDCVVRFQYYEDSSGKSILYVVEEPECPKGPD
wild-type human FGF2 (fibroblast growth factor 2), sequence (P09038 143-288): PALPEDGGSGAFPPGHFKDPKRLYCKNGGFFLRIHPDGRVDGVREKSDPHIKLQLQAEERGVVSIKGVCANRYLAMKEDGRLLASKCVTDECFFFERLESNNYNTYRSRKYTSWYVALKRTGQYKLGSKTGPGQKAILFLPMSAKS

**Q.** How did the Kd [1] turn out when “wild-type human FGF2 (fibroblast growth factor 2) (ligand)” was run?
**A.** Its Kd is 77.5 nM.

**Q.** For FGF2 K125E mutant (ligand), which Kd1 (A + B <=> AB, first step of the conformation-change model; used by the paper as the binding Kd) [1] is on record?
**A.** Its Kd1 (A + B <=> AB, first step of the conformation-change model; used by the paper as the binding Kd) is 1.1 µM.

**Q.** How did the response ([2]; FGF2 2.5 µg/ml, parent: est. 63) turn out when “wild-type human FGF2 (fibroblast growth factor 2) K39E” was run?
**A.** The response was 27 % adhesion.

**Q.** And the response ([2]; FGF2 5 µg/ml, parent: est. 84)?
**A.** The response was 68 % adhesion.

**Q.** What about the response ([2]; FGF2 20 µg/ml, parent: est. 85) of the same substance?
**A.** The response was 89 % adhesion.
